Measurements: patent US8987201B2, “Black bear parathyroid hormone and methods of using black bear parathyroid hormone” (Michigan Technological University, priority 2009, dated 2015)
Marks after values point to notes of the source that are not given here. No end group written: not given here.

What was measured:
[1] = Serum calcium levels in the rat OVX dose response study; type: in vivo; settings: OVX rats; not significant at the p<0.05 level
Experimental: Ninety female, 3-month old Sprague-Dawley rats were obtained. Eighty (80) of the rats were ovariectomized (OVX) and ten (10) underwent a sham OVX procedure (sham OVX) in which the ovaries were left in the animal. The OVX animals were randomly assigned into groups of ten for further experiments.
Following the actual or sham OVX procedure, all animals were untreated for 6 weeks to allow bone loss. After the 6 week period of bone loss, groups of animals were injected for a six- or eight-week period (daily for five days per week) with vehicle (saline) or 3, 10, or 30 μg/kg bear or human PTH1-34. […] The sham OVX group as well as one group of actual OVX rats were euthanized at six weeks while the remaining animals were euthanized at fourteen weeks following the OVX procedure. Samples were obtained from the euthanized animals for further analysis.

[2] = system: ovariectomized rats; settings: cited from earlier work
[3] = system: rats; settings: long-term usage; cited from earlier work
[4] = system: human fetal osteoblasts (hFOB); experiment: Serum starvation cell death in human fetal osteoblasts (trypan blue); type: cell-based; settings: 100 nM for 1 hour before serum starvation for 24 hours, preliminary studies, p<0.0001
Experimental: All PTH peptides used in the current study attenuated apoptotic signaling induced by serum starvation in vitro (FIG. 19). bbPTH 1-34 reduced apoptotic signaling in pre-osteoblastic cells more than human PTH (FIG. 19). Recently, we found similar results with preliminary studies in human fetal osteoblasts (hFOB). Serum starvation for 24 hours increased cell death in hFOB (confirmed via trypan blue staining), but pretreatment of hFOB cells with 100 nM PTH 1-34 or 1-84 for 1 hour before starvation reduced percent cell death (percentage change in cell death compared to vehicle pretreatment, hPTH 1-34: −18%, bbPTH 1-34: −25%, hPTH 1-84: −17%, bbPTH 1-84: −21%; p<0.0001; data not shown). […] However, although bbPTH 1-84 was less anti-apoptotic than bbPTH 1-34 and hPTH 1-34 in vitro (FIG. 19) it caused the greatest increases in cortical and trabecular bone mass in the in vivo studies (Table 1, Table 2).

[5] = system: Male Swiss-Webster mice; experiment: Trabecular bone structure and mineralization in the proximal tibia (micro-computed tomography); type: in vivo, mouse; settings: 8 weeks
Source text: (§1) All handling procedures and experiments were approved by the Michigan Technological University Institutional Animal Care and Use Committees. Male Swiss-Webster mice were obtained from a commercial breeder (Harlan, Indianapolis, Ind.). All animals were maintained on a 12-h light/12-h dark cycle, and were permitted free access to water and food containing 0.95% calcium (Purina Rodent Diet #5001).
(§2) In the first experiment, 11 wk old mice received daily (5 days/week) subcutaneous injections of 2.5 nmol/kg PTH 1-34 (hPTH 1-34 or bbPTH 1-34) or acidic saline vehicle (0.15 M NaCl+0.001 N HCl) for 8 weeks (n=10 mice/group). In the second experiment, 12 wk old mice received daily (5 days/week) subcutaneous injections of 2.5 nmol/kg PTH 1-84 (hPTH 1-84 or bbPTH 1-84) or acidic saline vehicle for 8 weeks (n=10 mice/group). All PTH- and vehicle-treated animals received subcutaneous injections of calcein at a dosage of 10 mg/kg on days 12 and 3 before death to label mineralizing bone surfaces. Twenty-four hours following the last treatment injection, mice were sacrificed by carbon dioxide asphyxiation. Right femurs were fixed in 10% neutral buffered formalin. Left femurs were wrapped in 0.15M saline soaked gauze and stored at −20 deg C. Left tibias were stored in 70% ethanol at 4 deg C.
Trabecular bone architecture and mineralization were evaluated in the left proximal tibial metaphysis (0.7 mm distal to the growth plate) using micro-computed tomography. Tibias from experiment 1 were scanned on a μCT35 scanner (Scanco Medical AG, Basserdorf, Switzerland) at 3.5 μm (high) resolution. Tibias from experiment 2 were scanned on a μCT40 scanner (Scanco Medical AG, Basserdorf, Switzerland) at 7 μm (high) resolution. Bones were scanned in 70% ethanol. Trabecular bone volume fraction (BV/TV, %), trabecular number (Tb.N, mm^−1), trabecular thickness (Tb.Th, m), trabecular separation (Tb.Sp, m), trabecular apparent mineral density (App.Mn.Dn, mgHA/cm^3) and trabecular tissue mineral density (Mat.Mn.Dn, mgHA/cm^3) were computed using the manufacturer's software.
(§3) All bone geometrical, architectural, and mineral properties were normalized by body mass to account for potential variation in animal size (31-33). Trabecular bone properties quantified by micro-computed tomography were compared by ANOVA between vehicle, bear, and human PTH-treated mice within each study (PTH 1-34 or PTH 1-84). The microCT parameters were not directly compared between the PTH 1-34 and PTH 1-84 studies because analyses were conducted on different microCT machines. For all other bone properties, all six experimental groups (from both the PTH 1-34 and PTH 1-84 studies) were compared with ANOVA and Fisher's PLSD. A significance of p<0.05 was used for all comparisons.

[6] = system: Male Swiss-Webster mice; experiment: Cortical bone mechanical properties of the femur (3-point bending); type: in vivo, mouse; settings: 2.5 nmol/kg, 8 weeks
Source text: as §1
In the first experiment, 11 wk old mice received daily (5 days/week) subcutaneous injections of 2.5 nmol/kg PTH 1-34 (hPTH 1-34 or bbPTH 1-34) or acidic saline vehicle (0.15 M NaCl+0.001 N HCl) for 8 weeks (n=10 mice/group). In the second experiment, 12 wk old mice received daily (5 days/week) subcutaneous injections of 2.5 nmol/kg PTH 1-84 (hPTH 1-84 or bbPTH 1-84) or acidic saline vehicle for 8 weeks (n=10 mice/group). […]
Left femurs were loaded to failure in 3-point bending on an Instron mechanical testing system (Model #8872, Canton, Mass.) at a rate of 1 mm/min. […] Ultimate load was calculated using the load-deformation data from testing.
All bone geometrical, architectural, and mineral properties were normalized by body mass to account for potential variation in animal size (31-33). Trabecular bone properties quantified by micro-computed tomography were compared by ANOVA between vehicle, bear, and human PTH-treated mice within each study (PTH 1-34 or PTH 1-84). […]

[7] = system: Male Swiss-Webster mice; experiment: Cortical bone mineral content (ash fraction) and geometrical properties of the femur; type: in vivo, mouse; settings: femoral midshaft, 2.5 nmol/kg s.c., 8 weeks, normalized by body mass, SD in parentheses
Source text: as §1, §2
(§4) Following the bending test, the left femoral diaphyses were ashed in a furnace to determine mineral content (ash fraction). Right femoral diaphyses were embedded in methyl methacrylate and sectioned with a diamond saw to expose the midshaft cross-section. Images of the midshaft cross-sections were captured using a digital camera (Spot Insight QE, Diagnostic Instruments Inc., Sterling Heights, Mich.), and Scion Image analysis software (Scion Corporation, Frederick, Md.) was used to calculate the periosteal area (Ps.Ar), cortical area (Ct.Ar), and endosteal area (Es.Ar) for each sample. Cortical bone thickness (Ct.Th) was calculated in 0.1 mm increments for each anatomical quadrant and for the entire cross-section using image analysis software (Bioquant Osteo, Nashville, Tenn.). Thin sections from the midshaft of the right femur were ground to a thickness of 50 μm and mounted on glass slides. Images of calcein labels were captured at 100× magnification and periosteal and endosteal mineral apposition rates (Ps.MAR and Es.MAR, respectively) and mineralizing surfaces (Ps.MS/BS and Es.MS/MS) were quantified (Bioquant) for each femur.
as §3

[8] = system: Male Swiss-Webster mice; experiment: Cortical bone dynamic histomorphometry in the femur (calcein labels); type: in vivo, mouse; settings: femoral midshaft, 2.5 nmol/kg s.c., 8 weeks, SD in parentheses
Source text: as §1, §2, §4, §3

[9] = system: ovariectomized (OVX) Sprague-Dawley rats; experiment: In vivo effects of human PTH1-84 and bear PTH1-84 in ovariectomized rats; parameters: species or system rat; settings: 2.5 nmol/kg s.c., eight weeks
Experimental: Thirty female, 2.5-month old Sprague-Dawley rats were ovariectomized (OVX) at the commercial breeding facility The OVX animals were randomly assigned into 3 groups of 10 animals per group for further experiments.
Six weeks after the OVX procedure, the rats were injected subcutaneously for an eight-week period (daily for five days per week) with vehicle (saline) or 2.5 nmol/kg bear or human PTH1-84. Animals were euthanized 24 hours after the last injection. Samples were obtained from the euthanized animals for further analysis.
Femur bending strength and proximal tibia trabecular architecture were investigated as described in Example 12.

[10] = PTH 1-84 study: 12 wk old mice, 2.5 nmol/kg s.c., proximal tibia, normalized by body mass

Molecule: SVSEIQFMHNLGKHLSSMERVEWLRKKLQDVHNF [bbPTH 1-34, black bear PTH 1-34]
- serum calcium levels compared to human PTH1-34 [1]: lower

Molecule: bovine PTH 1-34 (AVSEIQFMHNLGKHLSSMERVEWLRKKLQDVHNF; Parathyroid hormone; UniProt P01268 32-65, looked up, fragment) [1-34 fragment of bovine PTH]
- greater bone formation response than to rat PTH 1-34 ([2]; daily 25 μg injections): 25%
- greater increase in bone volume fraction during treatment ([2]; injection): 37%

Molecule: CC[C@H](C)[C@H](NC(=O)[C@H](CCC(=O)O)NC(=O)[C@H](CO)NC(=O)[C@@H](NC(=O)[C@@H](N)CO)C(C)C)C(=O)N[C@@H](CCC(N)=O)C(=O)N[C@@H](CC(C)C)C(=O)N[C@@H](CCSC)C(=O)N[C@@H](Cc1cnc[nH]1)C(=O)N[C@@H](CC(N)=O)C(=O)N[C@@H](CC(C)C)C(=O)NCC(=O)N[C@@H](CCCCN)C(=O)N[C@@H](Cc1cnc[nH]1)C(=O)N[C@@H](CC(C)C)C(=O)N[C@@H](CC(N)=O)C(=O)N[C@@H](CO)C(=O)N[C@@H](CCSC)C(=O)N[C@@H](CCC(=O)O)C(=O)N[C@@H](CCCN=C(N)N)C(=O)N[C@H](C(=O)N[C@@H](CCC(=O)O)C(=O)N[C@@H](Cc1c[nH]c2ccccc12)C(=O)N[C@@H](CC(C)C)C(=O)N[C@@H](CCCN=C(N)N)C(=O)N[C@@H](CCCCN)C(=O)N[C@@H](CCCCN)C(=O)N[C@@H](CC(C)C)C(=O)N[C@@H](CCC(N)=O)C(=O)N[C@@H](CC(=O)O)C(=O)N[C@H](C(=O)N[C@@H](Cc1cnc[nH]1)C(=O)N[C@@H](CC(N)=O)C(=O)N[C@@H](Cc1ccccc1)C(=O)O)C(C)C)C(C)C [LY333334]
- osteosarcoma in rats [3]: generates osteosarcoma

B1: black bear PTH1-84 (protein, listed as Ursus americanus)
chain: SVSEIQFMHNLGKHLSSMERVEWLRKKLQDVHNFVALGAPTAHRDGGSQRPQKKEDNVLVENHQKSLGEADKADVDVLTKAKSQ
- percentage change in cell death compared to vehicle pretreatment [4]: −21%
- BV/TV ([5]; PTH 1-84 study: 12 wk old mice, 2.5 nmol/kg s.c. daily 5 days/week, proximal tibia, normalized by body mass): 2.26 %/kg
- App. Mn. Dn [5, 10]: 3665 mgHA/(cm^3*kg)
- Mat. Mn. Dn. [5, 10]: 30552 mgHA/(cm^3*kg)
- Tb. N [5, 10]: 113.8 1/mm*kg
- Tb. Sp [5, 10]: 8.47 mm/kg
- Tb. Th [5, 10]: 1.38 mm/kg
- trabecular apparent mineral density compared to other treatments ([5]; mice, 2.5 nmol/kg, bbPTH 1-84 vs hPTH 1-84 p=0.019): highest
- trabecular bone volume fraction and apparent mineral density over vehicle treatment ([5]; mice, 2.5 nmol/kg, only this peptide): significantly increased over vehicle treatment
- bone volume fraction in the proximal tibia compared to hPTH 1-84 ([5]; mice, 2.5 nmol/kg, p=0.013): greater
- increase in bone strength (ultimate load of the femur), bear peptide compared to the corresponding human peptide [6]: significantly (p=0.032) greater
- increase of femoral ultimate load over vehicle treatment ([6]; only for this peptide): statistically significant
- Ct.Ar [7]: 31.7 (3.7) mm^2/kg
- Ct.Th [7]: 3.56 (0.42)^a mm/kg
- Es.Ar [7]: 26.6 (4.6) mm^2/kg
- Ps.Ar [7]: 58.3 (5.0)^a,b mm^2/kg
- Endosteal MAR [8]: 0.59 (0.42)
- Endosteal MS/BS [8]: 24.5 (17.2)
- Periosteal MAR [8]: 0.62 (0.33)
- Periosteal MS/BS [8]: 31.3 (22.5)
- bone volume fraction / trabecular bone volume [9]: equivalently increase
- increases in cortical bone strength compared to hPTH1-84 [9]: greater increases
- ultimate load of the femur compared to vehicle treatment [9]: significantly (p=0.013) increased
